Target: DSV^4 VLPs (Dengue virus serotypes 1-4; Hepatitis B virus; Hepatitis B virus)
Experiment: sandwich ELISA: mAb coated, DSV^4 VLPs added, detected with peroxidase labelled anti-HBsAg

Row | Substance | ELISA OD [OD]
1 | 3H5 (antibody) | 0.77
2 | 4G2 (antibody) | 0.05

Reference: patent publication US10189877
